Measured values taken from PMC3032050, “LPS ligand and culture additives improve production of monomeric MD-1 and 2 in Pichia pastoris by decreasing aggregation and intermolecular disulfide bonding” (Protein Expression and Purification, 2011).
One block for each binder: values may come before it.

How the values were obtained:
[1] = molecular target: the molecule itself; assay: non-reducing SDS-PAGE with anti-His Western blot; culture supernatants of GS115 and KM71H cultures, induced without or with culture additives
[2] = molecular target: T1, human MD-2 (myeloid differentiation factor 2) (human), Q9Y6Y9; assay: SEC; nickel-purified protein on HiLoad 16/60 Superdex 200 in 50 mM sodium acetate, pH 5.0; without additive, or with the anti-aggregation additive (0.2 M MgSO4 for hMD-2) in culture medium and buffers; details: remark: other sources report otherwise
T1 chain: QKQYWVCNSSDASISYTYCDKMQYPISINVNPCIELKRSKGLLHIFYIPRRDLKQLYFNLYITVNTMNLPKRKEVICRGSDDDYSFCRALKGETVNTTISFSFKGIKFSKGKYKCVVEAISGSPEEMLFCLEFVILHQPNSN

B1: human MD-1 (myeloid differentiation factor 1) (natural protein, UniProt O95711 21-162, looked up)
chain: GGGGKAWPTHVVCSDSGLEVLYQSCDPLQDFGFSVEKCSKQLKSNINIRFGIILREDIKELFLDLALMSQGSSVLNFSYPICEAALPKFSFCGRRKGEQIYYAGPVNNPEFTIPQGEYQVLLELYTEKRSTVACANATIMCS
notes: A TEV cleavage site lies between the His6-tag and the protein; Secreted by the S. cerevisiae alpha factor prepro peptide; Glycoprotein; also called hMD-1; source: Pichia pastoris GS115 or KM71H (pPIC9K), secreted; not shown: His6, N-terminal, kept
binding result [1]: binds

percent monomeric (with 0.2 M MgSO4) [2]: 15%
B2: human MD-2 (myeloid differentiation factor 2), Q9Y6Y9 19-160 (natural protein)
chain: T1 chain
